Patent US20250263490A1 (VIB VZW, published 2025)
Where a chain is given by its changes, count along the chain named. Read-outs that look alike come from different tables or passages of the source.

Assays:
[1] = target: T1, recombinant human domain 1-3His6 of the cation-independent mannose-6-phosphate receptor (human, UniProt P11717 41-467); experiment: in-tandem competitive BLI, biotinylated hDom1-3His6 on SA sensors, purified VHH at 400 nM
T1 construct: Biotinylated (NHS-PEG4-biotin) for BLI; Glycosylated; also called hDom1-3His6; hCI-M6PRD1-D3

[2] = target: T1, recombinant human domain 1-3His6 of the …; experiment: ELISA on coated antigen (100 ng), anti-VHH-HRP, A450
Procedure: (§1) To determine the effect of site-directed mutations, an ELISA was performed. To this end, 100 ng of each successfully purified mutant was coated per well on Nunc Maxisorp plates in 50 mM MES, 150 mM NaCl, pH 6.5 buffer overnight at 4° C. […] Coating-only controls were included for background correction. […] Reactions were stopped after five minutes using a 2N H₂SO₄ solution and plates were read at 450 nm, with a 655 nm background correction. Data were analyzed using the GraphPad Prism 9 software.

[3] = target: T1, recombinant human domain 1-3His6 of the …; experiment: as above; remark: listed apart in the source
Procedure: as §1

[4] = target: T1, recombinant human domain 1-3His6 of the …; experiment: BLI exp 1, dissoc pH 6
Procedure: (§2) For each of the 11 anti-CI-M6PR VHHs, a biolayer interferometry (BLI) experiment was performed in which the hDom₁₋₃His₆ was biotinylated and coupled to streptavidin biosensor tips. Afterwards, the tips were incubated with serially diluted VHHs during the association phase and dissociation was performed at pH 7.4. Similarly, dissociation was performed at pH 7.0, pH 6.0 and pH 5.0 as well after regeneration of the biosensor tips. […] The anti-CI-M6PR antibody (clone 2G11) and GBP were used as positive and negative controls, respectively.
(§3) Analysis of the binding kinetics was performed using an Octet Red96 (FortéBio) device with Streptavidin SA Biosensor tips (VWR 733-2145). Therefore, 1 mL of human domain₁₋₃His₆ (0.5 mg/mL in 50 mM MES, 150 mM NaCl, pH 6.5) was incubated at room temperature for 30 minutes with EZ-Link™ NHS-PEG4-Biotin (1 mg) (Thermo Fischer A39259) and NaHCO₃ (100 mM). Biotinylated human domain₁₋₃His₆ was purified using a Zeba spin desalting Column™ (7K MWCO, 2 mL, Thermo Fischer 89890) and 1 μg/mL was used for immobilization on the Streptavidin SA Biosensor tips. The loaded tips were dipped into a particular anti-CI-M6PR VHH solution, serially diluted in kinetics buffer (0.2M NaH₂PO₄, 0.1M Na⁺ citrate, 0.01% BSA, 0.002% Tween20, pH 7.4). This was followed by dissociation of the particular anti-CI-M6PR VHH in kinetics buffer of pH 7.4, followed by regeneration in Glycine (10 mM, pH 3) and neutralisation. Same cycle was repeated but the dissociation was performed at pH 7.0, 6.0, 5.0, 4.5 and 4.0. A reference well and reference sensors were subtracted from ligand sensors afterwards and Savitsky-Golay filtering was applied on the data. Fitting of the data was performed using a 1:1 model, grouped per pH of dissociation.

[5] = target: T1, recombinant human domain 1-3His6 of the …; experiment: BLI exp 1, dissoc pH 7
Procedure: as §2, §3

[6] = target: T1, recombinant human domain 1-3His6 of the …; experiment: BLI at pH 7.4, 1st of 2 repeats
Procedure: as §2, §3

[7] = target: T1, recombinant human domain 1-3His6 of the …; experiment: BLI exp 1, dissoc pH 7.4
Procedure: as §2, §3

[8] = target: T1, recombinant human domain 1-3His6 of the …; experiment: BLI exp 1, dissoc pH 5
Procedure: as §2, §3

[9] = target: T1, recombinant human domain 1-3His6 of the …; experiment: ELISA on coated antigen, 1st of 2 repeats
Procedure: (§4) FIGS. 4A-4B. Affinity of anti-CI-M6PR VHHs for recombinant human CI-M6PR Domain 1-3His₆ determined by ELISA. A & B. Measurements for each of the 11 anti-CI-M6PR VHHs in serial dilution binding to the coated human CI-M6PR Domain 1-3His₆ antigen. Detection was performed using an anti-VHH antibody coupled to HRP, and measured as the absorbance of the TMB substrate at 450 nm, correlating to the amount of bound VHH as plotted at the Y-axis. The Log₁₀ concentrations of the serially diluted VHHs were plotted at the X-axis. […] A & B represent replicates but using a different concentration of human CI-M6PR Domain 1-3His₆ (in (FIG. 4A): 0-0.75 μM and in (FIG. 4B): 0-1 μM).
(§5) We evaluated the affinity of the VHHs against the hDom₁₋₃His₆ using ELISA. Coated hDom₁₋₃His₆ was incubated with serially diluted VHH that was afterwards detected using an anti-VHH antibody, coupled to HRP.

[10] = target: T1, recombinant human domain 1-3His6 of the …; experiment: BLI exp 2, dissoc pH 6
Procedure: as §2
(§6) Analysis of the binding kinetics was performed using an Octet Red96 (FortéBio) device with Streptavidin SA Biosensor tips (VWR, 733-2145). To this end, 1 mL of hCI-M6PR_D1-D3 (0.5 mg/mL in 50 mM MES, 150 mM NaCl, pH 6.5) was incubated at room temperature for 30 minutes with a two-fold molar excesses of EZ-Link™ NHS-PEG₄-Biotin (Thermo Fischer, A39259) and NaHCO₃ (100 mM, pH 8.3). Biotinylated hCIMPR_D1-D3 was purified using a Zeba spin desalting column (Thermo Fischer, 89890) and protein concentration was calculated by measuring the absorbance at 280 nm (extinction coefficient 50320 M¹ cm⁻¹). Two-fold biotin-labelled antigen was loaded on the tips (2.5 μg/mL) and subsequently dipped into a particular anti-CI-M6PR VHH-containing solution (ranging from 0-100 nM). Serial VHH dilutions were made in kinetics buffer (0.2 M Na₂HPO₄, 0.1 M Na⁺ citrate, 0.01% BSA, 0.002% Tween20, pH 7.4). After association (100 sec), dissociation was conducted (500 sec) for each anti-CI-M6PR VHH in the kinetics buffer, followed by biosensor regeneration in glycine (10 mM, pH 3) and neutralisation. The same cycle was repeated with dissociation performed in kinetics buffer of pH 7.0, 6.5, 6.0, 5.5, and 5.0.
(§7) A reference well and reference sensors were subtracted from ligand sensors afterwards and Savitsky-Golay filtering was applied on the data. Fitting of the data was performed using a 1:1 model, grouped per dissociation pH.

[11] = target: T1, recombinant human domain 1-3His6 of the …; experiment: ELISA on coated antigen, 2nd of 2 repeats
Procedure: as §4, §5

[12] = target: T1, recombinant human domain 1-3His6 of the …; experiment: BLI exp 2, dissoc pH 5
Procedure: as §2, §6, §7

[13] = target: T2, recombinant mouse domain 1-3His6 of CI-M6PR (mouse, UniProt Q07113 36-418); experiment: ELISA: coated mouse CI-M6PR Domain 1-3His6, serially diluted VHH, anti-VHH-HRP, TMB, Abs 450 nm; sigmoidal regression [table at the right]
T2 construct: Genbank NM_010515.2); Range includes the signal peptide; also called mDom1-3His6; mCI-M6PRD1-D3
Procedure: FIGS. 5A-5B. Affinity of anti-CI-M6PR VHHs for recombinant mouse CI-M6PR Domain 1-3His₆ determined by ELISA. (FIG. 5A) Measurement for each of the 11 anti-CI-M6PR VHHs in serial dilution binding to the coated mouse antigen. Detection was performed using an anti-VHH antibody coupled to HRP, and measured as the absorbance of the TMB substrate at 450 nm, correlating to the amount of bound VHH as plotted at the Y-axis. The Log₁₀ concentrations of the serially diluted VHHs were plotted at the X-axis.
To evaluate the cross-reactivity of the anti-CI-M6PR nanobodies between the human and mouse CI-M6PR domain 1-3His₆ antigen, ELISA was performed with the eleven serially diluted anti-CI-M6PR nanobodies. […] By performing sigmoidal regression on the derived absorbance curves, half-maximal effective concentration (EC₅₀) values of each VHH were acquired, representing the required concentration to occupy 50% of the coated antigen. As a negative control, GBP was included in the assay.

[14] = target: T1, recombinant human domain 1-3His6 of the …; experiment: BLI exp 2, dissoc pH 7

T2 sequence (Q07113 other isoform, or with tags, fused parts or gaps): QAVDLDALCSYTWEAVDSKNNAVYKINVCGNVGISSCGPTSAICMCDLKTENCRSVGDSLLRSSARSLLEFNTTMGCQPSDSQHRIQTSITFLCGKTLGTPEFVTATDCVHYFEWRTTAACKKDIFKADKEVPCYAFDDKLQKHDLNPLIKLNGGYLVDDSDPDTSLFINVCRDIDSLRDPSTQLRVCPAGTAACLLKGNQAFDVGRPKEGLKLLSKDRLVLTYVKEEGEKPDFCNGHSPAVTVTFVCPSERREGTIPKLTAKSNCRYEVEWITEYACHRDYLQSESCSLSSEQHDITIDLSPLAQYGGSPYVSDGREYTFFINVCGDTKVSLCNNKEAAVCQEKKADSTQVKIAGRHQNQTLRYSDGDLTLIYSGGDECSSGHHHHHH

B1: humanized VHH8 variant VHH8 h2 (VHH)
VHH: DVQLVESGGGLVQPGGSLRLSCAASGRTFNTYNWGWFRQAPGKEREFVAAIRWSSSKTSYADSVKGRFTISRDNSKNTVYLQMNSLRPEDTAVYYCAASIVDFTTNPSHFGSWGQGTLVTVSS
notes: made in E. coli
- binding result [1]: binds

B2: humanized VHH8 variant VHH8 h3 (VHH)
VHH: B1 VHH with P14A
notes: made in E. coli
- binding result [1]: binds

B3: humanized VHH8 variant VHH8hWN (VHH)
VHH: B1 VHH with S75A, V79I
notes: His6-tagged, made in HEK293S
- EC50 (read off the curve) [2]: ~3 nM
- EC50 (read off the curve) [3]: ~3 nM

B4: humanized VHH8 variant VHH8 h1 (VHH)
VHH: B1 VHH with D1E
notes: made in E. coli
- binding result [1]: binds

B5: humanized VHH7 variant VHH7 h3 (VHH)
VHH: DVQLVESGGGLVQPGGSLRLSCAASGIIFSDNRMDWYRQAPGKQREWVATLASYGWKTYADSVKGRFTISRDNTKNTVYLQMNSLRPEDTAVYYCKASSPVLNDIWGQGTLVTVSS
notes: made in E. coli
- binding result [1]: binds

B6: humanized VHH7 variant VHH7 h2 (VHH)
VHH: B5 VHH with T74S
notes: made in E. coli
- binding result [1]: binds

B7: humanized VHH7 variant VHH7hWN (VHH)
VHH: B5 VHH with T74A
notes: His6-tagged, made in HEK293S
- EC50 (read off the curve) [2]: ~0.5 nM
- EC50 (read off the curve) [3]: ~0.5 nM

B8: humanized VHH7 variant VHH7 h1 (VHH)
VHH: B5 VHH with D1E, T74S
notes: made in E. coli
- binding result [1]: binds

B9: anti-CI-M6PR VHH2 (VHH)
VHH: QVQLQESGGGLVQPGGSLRLSCVFSGRTFMSYDVGWFRQAPGKERELLSSITSSSSSPYYAESVKGRFAVSRDGAKKTVYLRMNSLEPEDTAVYYCAARENWRNDWQYWGQTQVTVSS
notes: His6-tagged; made in Pichia pastoris
- Kd [4]: 5.96 nM
- koff [4]: 0.00513 s⁻¹
- kon [4]: 862000 M⁻¹ s⁻¹
- Kd [5]: 24.2 nM
- koff [5]: 0.0161 s⁻¹
- kon [5]: 665000 M⁻¹ s⁻¹
- Kd [6]: 5.3 nM
- koff [6]: 0.0036 s⁻¹
- kon [6]: 679000 M⁻¹ s⁻¹
- Kd [7]: 5.3 nM
- koff [7]: 0.0036 s⁻¹
- kon [7]: 679000 M⁻¹ s⁻¹
- Kd [8]: 10 nM
- koff [8]: 0.00746 s⁻¹
- kon [8]: 745000 M⁻¹ s⁻¹
- EC50 [9]: 0.0608 nM
- koff [10]: 0.0748 s⁻¹
- kon [10]: 3.76e+06 M⁻¹ s⁻¹
- EC50 [11]: 0.177 nM
- koff [12]: 0.074 s⁻¹
- kon [12]: 745000 M⁻¹ s⁻¹
- EC50 [13]: 104 nM
- koff [14]: 0.0136 s⁻¹
- kon [14]: 1.56e+06 M⁻¹ s⁻¹
